From the RNAGym collection of RNA variant scans (doi:10.7554/elife.80360)

B1: HDV Ribozyme (parent)
chain: GGCCGGCAUGGUCCCAGCCUCCUCGCUGGCGCCGGCUGGGCAACAUUCCGAGGGGACCGUCCCCUCGGUAAUGGCGAAUGGGACCCA

Variants of: B1
Assay: self-cleavage, relative activity (ratio to wild type); higher = more cleavage; co-transcriptional

Q: For GGCCGGCAUGGUCCCAGCCUCCUCGCUGGCGCCCGCUUGGCAACAUUCCGAGGGGACCGUCCCCUCGGUAAUGGCGAAUGGGACCCA, which self-cleavage is on record?
A: 0.0378

Q: With GGCCGGCAUGGUCCCAGCCUCCUCGCUGGCGCCCGCUGGGCAACAUUCCGAGGGGACCGUCCCCUCGGGAAUGGCGAAUGGGACCCA as the variant, how does the self-cleavage read?
A: 0.703

Q: For GGCCGGCAUGGUCCCAGCCUCCUCGCUGGCGCCCGCUGGGCAACAUUCCGAGGGGACCGUCCCCUCGGCAAUGGCGAAUGGGACCCA, which self-cleavage is on record?
A: 0.249

Q: For GGCCGGCAUGGUCCCAGCCUCCUCGCUGGCGCCCGCUGGUCAACAUUCCGAGGGGACCGUCCCCUCGGUAAUGGCGAAUGGGACCCA, which self-cleavage is on record?
A: 0.151

Q: Which self-cleavage does the source give for GGCCGGCAUGGUCCCAGCCUCCUCGCUGGCGCCCGCUGGGCAACAUUCCGAGGGGACCGUCCCCUCGGUAAUGGCGAAUGGGCCCCA here?
A: 0.0898

Q: With GGCCGGCAUGGUCCCAGCCUCCUCGCUGGCGCCCGCUGGGCAACAUUCCGAGGGGACCGUCCCCUCGGUAAUGGCGAAUGGGGCCCA as the variant, how does the self-cleavage read?
A: 0.0959

Q: With GGCCGGCAUGGUCCCAGCCUCCUCGCUGGCGCCCGCAGGGCAACAUUCCGAGGGGACCGUCCCCUCGGUAAUGGCGAAUGGGACCCA as the variant, how does the self-cleavage read?
A: 0.297

Q: Which self-cleavage does the source give for GGCCGGCAUGGUCCCAGCCUCCUCGCUGGCGCCCGCUGGGCAACAUUCCGAGGGGACCGUCCCCUUGGUAAUGGCGAAUGGGACCCA here?
A: 0.266

Q: For GGCCGGCAUGGUCCCAGCCUCCUCGCUGGCGCCCGCUGGGCAACAUUCCGAGGGGACCGUCCCCUAGGUAAUGGCGAAUGGGACCCA, which self-cleavage is on record?
A: 0.35

Q: For GGCCGGCAUGGUCCCAGCCUCCUCGCUGGCGCCCGCUGGGCAACAUUCCGAUGGGACCGUCCCCUCGGUAAUGGCGAAUGGGACCCA, which self-cleavage is on record?
A: 0.155

Q: With GGCCGGCAUGGUCCCAGCCUCCUCGCUGGCGCCCGCUGGGCAACAUUCCGACGGGACCGUCCCCUCGGUAAUGGCGAAUGGGACCCA as the variant, how does the self-cleavage read?
A: 0.267

Q: With GGCCGGCAUGGUCCCAGCCUCCUCGCUGGCGCCCGCUGGGCAACAUUCCGAGGGGACCGUGCCCUCGGUAAUGGCGAAUGGGACCCA as the variant, how does the self-cleavage read?
A: 0.231

Q: Which self-cleavage does the source give for GGCCGGCAUGGUCCCAGCCUCCUCGCUGGCGCCCGCUGGGCAACAUUCCGAGGGGACCGUCCCCUCGGUAAUGGCGUAUGGGACCCA here?
A: 0.125

Q: With GGCCGGCAUGGUCCCAGCCUCCUCGCUGGCGCCCGCUGGGCAACAUUCCGAGGGGACCUUCCCCUCGGUAAUGGCGAAUGGGACCCA as the variant, how does the self-cleavage read?
A: 0.0415

Q: Which self-cleavage does the source give for GGCCGGCAUGGUCCCAGCCUCCUCGCUGGCGCCCGCUGGGCAACAUUCCGAGGGGACCCUCCCCUCGGUAAUGGCGAAUGGGACCCA here?
A: 0.0811

Q: With GGCCGGCAUGGUCCCAGCCUCCUCGCUGGCGCCCGCUGGGCAACAUUCCGAGGGGACCGUCUCCUCGGUAAUGGCGAAUGGGACCCA as the variant, how does the self-cleavage read?
A: 0.262

Q: For GGCCGGCAUGGUCCCAGCCUCCUCGCUGGCGCCCGCUGGGCAACAUUCCGAGGGGACCGUCACCUCGGUAAUGGCGAAUGGGACCCA, which self-cleavage is on record?
A: 0.162

Q: With GGCCGGCAUGGUCCCAGCCUCCUCGCUGGCGCCCGCUGGGCAACAUUCCGAGGGGACCGUCCCCUCGGUAAUGGCGAAUGUGACCCA as the variant, how does the self-cleavage read?
A: 0.0639

Q: For GGCCGGCAUGGUCCCAGCCUCCUCGCUGGCGCCCGCUGGGCAACAUUCCGAGUGGACCGUCCCCUCGGUAAUGGCGAAUGGGACCCA, which self-cleavage is on record?
A: 0.163

Q: For GGCCGGCAUGGUCCCAGCCUCCUCGCUGGCGCCCGCUGGGCAACAUUCCGAGGGGACCGUCCCUUCGGUAAUGGCGAAUGGGACCCA, which self-cleavage is on record?
A: 0.271

Q: With GGCCGGCAUGGUCCCAGCCUCCUCGCUGGCGCCCGCUGGGCAACAUUCCGAGGGGACCGUCCCGUCGGUAAUGGCGAAUGGGACCCA as the variant, how does the self-cleavage read?
A: 0.306

Q: For GGCCGGCAUGGUCCCAGCCUCCUCGCUGGCGCCCGCUGGGCAACACUCCGAGGGGACCGUCCCCUCGGUAAUGGCGAAUGGGACCCA, which self-cleavage is on record?
A: 0.332

Q: For GGCCGGCAUGGUCCCAGCCUCCUCGCUGGCGCCCGCUGGGCAACAUUCCGAGGGGACCGUCCCCUCGGUAAUGGCGAAUGGUACCCA, which self-cleavage is on record?
A: 0.0652

Q: Which self-cleavage does the source give for GGCCGGCAUGGUCCCAGCCUCCUCGCUGGCGCCCGCUGGGCAACAUUCCGAGGGGACCGUCCCCUCGGUAAUGGCGAAUGGAACCCA here?
A: 0.0308

Q: Which self-cleavage does the source give for GGCCGGCAUGGUCCCAGCCUCCUCGCUGGCGCCCGCUGGGCAACAUUCGGAGGGGACCGUCCCCUCGGUAAUGGCGAAUGGGACCCA here?
A: 0.264

Q: For GGCCGGCAUGGUCCCAGCCUCCUCGCUGGCGCCCGCUGGGCAACAUUCCGAGGGGAACGUCCCCUCGGUAAUGGCGAAUGGGACCCA, which self-cleavage is on record?
A: 0.288

Q: For GGCCGGCAUGGUCCCAGCCUCCUCGCUGGCGCCCGCUGGGCAACAUUCCGAGGGGACCGUCCCCUCGGUAAUGGCGAAUGGGACUCA, which self-cleavage is on record?
A: 0.277

Q: For GGCCGGCAUGGUCCCAGCCUCCUCGCUGGCGCCCGCUGGGCAACAUCCCGAGGGGACCGUCCCCUCGGUAAUGGCGAAUGGGACCCA, which self-cleavage is on record?
A: 0.185

Q: For GGCCGGCAUGGUCCCAGCCUCCUCGCUGGCGCCCGUUGGGCAACAUUCCGAGGGGACCGUCCCCUCGGUAAUGGCGAAUGGGACCCA, which self-cleavage is on record?
A: 0.0332

Q: For GGCCGGCAUGGUCCCAGCCUCCUCGCUGGCGCCCGCUGGGCAACAUUCCGAGGGGACCGUCCCCCCGGUAAUGGCGAAUGGGACCCA, which self-cleavage is on record?
A: 0.573

Q: Which self-cleavage does the source give for GGCCGGCAUGGUCCCAGCCUCCUCGCUGGCGCCCGCUGGGCAACAUUCCGAGGGGACCGUCCCCUCGGUAAUGGCGAAUGGGACCUA here?
A: 0.237

Q: With GGCCGGCAUGGUCCCAGCCUCCUCGCUGGCGCCCGCUGGGCAACAUUCCGAGGGGACCGUCCCCUCGGUAAUGGCGAAUGGGACCGA as the variant, how does the self-cleavage read?
A: 0.19
